Substitutions are numbered along the chain they refer to. Values joined by “and” are separate entries in the source; they are usually repeats but may differ in a detail not shown here. Equal values may be shown once.
B1: anti-TMEM106B antibody TM-1 (antibody, V domains shown)
VH: QVQLQQSGAELVRPGTSVKVSCKASGYAFTNYLIEWVKQRPGQGLEWIGVINPGSGGTKYNEKLKGKATLTADKSSSTAYMQLSSLTSVDSAVYFCARRGYTIYDFYAMDYWGQGTSVTVSS
VL: DVLMTQTPLSLPVSLGDHASISCRSSQSIVYNNGNTYLEWYLQKPGQSPKLLIYKVSNRFSGVPDRFSGSGSGTDFTLKISRVEAEDLGVYYCFQVSHVPFTFGSGTKLEIK
B2: anti-TMEM106B antibody TM-19 (antibody, V domains shown)
VH: DVQLQQSGAELVRPGASVKLSCTASGFNIKDYYMYWVKQRPEQGLEWIGRIDPEDGDTENAPKFRGMATMTADTSSNTAYLQLNSLTSEDTAVYYCTTRIGNLYHVMDYWGHGTSVTVSS
VL: B1 VL with H18Q, Y31H, N32S, S48A, Y54D, S57F, V96G
B3: anti-TMEM106B antibody TM-22 (antibody, V domains shown)
VH: QVQLQQSGPELVKPGASVKISCKASGYRFTSYYIHWVKQRPGQGLEWIGWIYPGNGITNYNEKFKGKATLTADTSSSTAYMQLSSLTSEDSAVYYCASPYYGIRNCYFDVWGTGTTVTVSS
VL: B1 VL with S26G, Y31H, N32S, V90I, V96G, F101W, S105G
B4: anti-TMEM106B antibody TM-18 (antibody, V domains shown)
VH: EVRLQQSGPELVKPGASVKISCKTSGYTFTDYYMNWVKQSHGKSLEWIVNINPNNGDAFYNQKFKGKATLTVDKSSNTAYLDLRSLTSEDSAVYYCAREGQLRLRRVYAMDYWGQGTSVTVSS
VL: DIVLAQSPASLAVSLGQRATISCRASKSVSISVYTYVHWYQQKPGQPPKLLIYLASNLESGVPARFSGSGSGTDFTLNIHPVEEEDAATYYCQHSRELPYTFGGGTKLEIK

What follows are binders tested against T1, human TMEM106B (human, UniProt Q9NUM4 2-274) (assay: FACS A549).
T1 construct: Full-length, on transiently transfected HEK293 cells, or natively expressed on HeLa, U251 and A549 cells; also called huTMEM106B; huTMEM
Description: (§1) All cells were cultured in either T75 or T150 flasks. […] The enzyme was quenched by addition of fresh media, and the cells were then distributed into 96-well plates for FACS analysis.
(§2) FACS analysis was performed as follows. Each cell type was aliquoted in 96-well round bottom plates (2x10^5 cells per well), washed once with FACS buffer (PBS + 2% FBS + 1 mM EDTA), and incubated with 50 µL of hybridoma supernatant or purified antibody (10 µg/ml in FACS buffer) on ice for 1 hour. […] Following this secondary incubation, the cells were again washed 2x with ice-cold FACS buffer and resuspended in a final volume of 50 µL of FACS buffer + 0.25 µl/well propidium iodide (Fisher Scientific # BDB556463). Analysis was performed on a FACSCanto system (BD Biosciences) or iQue (Intellicyt), with sort gates drawn to exclude dead (i.e., propidium iodide positive) cells.
(§3) Data is presented as mean fluorescence intensity (MFI).

Binder | MFI
B1 | 1460
B2 | 1820
B3 | 1570
B4 | 1490

What follows are binders tested against T1, human TMEM106B (assay: FACS HeLa;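 further: flow cytometry of cells incubated with hybridoma supernatant or purified antibody at 10 µg/ml for 1 h on ice, propidium iodide–positive dead cells gated out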).
Description: as §1, §2, §3

Binder | MFI
B1 | 253
B2 | 2430
B3 | 408
B4 | 1920

What follows are binders tested against T1, human TMEM106B (assay: FACS U251;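 further: flow cytometry of cells exposed to antibody (purified at 10 µg/mL, or hybridoma supernatant) for 1 h on ice, with propidium iodide-positive dead cells gated out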).
Description: as §1, §2, §3

Binder | MFI
B1 | 244
B2 | 878
B3 | 313
B4 | 874

These binders were tested against T2, mouse TMEM106B (mouse, UniProt Q80X71 2-275) (assay: FACS Neuro2a;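 further: flow cytometry of cells stained with antibody or hybridoma supernatant (purified antibody at 10 µg/ml) for 1 h on ice, propidium iodide–positive dead cells gated out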).
T2 construct: on transiently transfected HEK293 cells, or natively expressed on mouse Neuro2a cells; also called moTMEM106B; murine TMEM106B
Description: as §1, §2, §3

Binder | MFI
B1 | 253
B2 | 2140
B3 | 400
B4 | 1930

These binders were tested against T3, GST (Pierce) (UniProt P08515 1-218 = GST, limits assumed) (assay: ELISA, coated GST;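 further: ELISA on plates coated with GST alone at 1-10 µg/ml, antibodies applied at 100-1000x dilution, bound antibody detected by peroxidase substrate colour after acid stop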).
T3 construct: control for the GST part of the fusion protein; also called GST protein; Glutathione-S-transferase
Description: (§4) Briefly, 96-well polystyrene plates were coated with 1-10 µg/ml of recombinant GST-TMEM106B-truncated protein or GST (Pierce) in PBS either at 370 Cfor 1-4 hours or overnight at 4 °C. Coated plates were then blocked with 5% BSA for 1-hour, washed 3×150 µL in TBST (Tris-buffered saline + 0.1% Tween20), and then the antibodies were added at various dilutions (100-1000x) in PBS. After 1-hour incubation (room temperature, with shaking), the plates were washed 3x150 µL in TBST. […] After a final set of washes (3×150µL in TBST), 100 µL of peroxidase substrate was added for 1 minute; the reaction was then quenched with 2N sulfuric acid (100 µL).

Binder | binding result
B1 | no binding
B2 | no binding
B3 | no binding
B4 | no binding

The binders below were run against T4, GST-fusion human TMEM106B truncated (human) (assay: ELISA, supernatant).
T4 construct: also called GST-TMEM106B-truncated protein; GST-TMEM106B (truncated)
Description: as §4

Binder | binding result
B2 | binds
B3 | binds

What follows are binders tested against T1, human TMEM106B (assay: FACS A549, 1 ug/ml).
Description: (§5) Purified anti-TMEM106B antibodies were evaluated for their binding affinity to various TMEM106B-expressing cell lines including HEK293 transiently transfected with human/cyno/mouse TMEM106B, as well as HeLa cells and A549 cells. Antibodies tested for this experiment were mouse IgGs purified from hybridoma supernatant. Affinity binding to cells was determined as follows. Briefly, 1x10^5 cells were aliquoted per well in 96-well round bottom plates and incubated with 50 µL of purified anti-TMEM106B antibody at various concentrations (10x dilutions starting at 10 µg/ml) in FACS buffer (PBS + 2% FBS + 1 mM EDTA). […] Sorting was performed on a iQue (Intellicyt), with sort gates drawn to exclude dead (propidium iodide +) cells. Binding data was analyzed using median fluorescent intensity (MFI) and graphed in Prism. Values presented are MFI.

Binder | MFI
B1 | 364
B2 | 3640
B3 | 399
B4 | 2620

Each binder was assayed against T1, human TMEM106B (assay: FACS A549, 10 ug/ml).
Description: as §5

Binder | MFI
B1 | 409
B2 | 4960
B3 | 478
B4 | 5190

Each binder was assayed against T1, human TMEM106B (assay: FACS, HEK293 transfectants;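 on fold over negative controls: hybridoma supernatants incubated 30 min on ice with human TMEM106B-expressing HEK293 cells, binding read as anti-mouse-APC median fluorescence on live cells, relative to secondary-antibody-only wells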;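 on fold-change over parental HEK293: flow cytometry binding of hybridoma supernatants to HEK293 cells transiently expressing human, cyno or mouse TMEM106B, read as anti-mouse-APC median fluorescence, live cells only, 30 min on ice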).

Binder | fold over negative controls
B1 | > 2 fold
B2 | > 2 fold
B4 | > 2 fold

Each binder was assayed against T4, GST-fusion human TMEM106B truncated (assay: array SPR, Ab immobilised;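 further: antibodies amine-coupled on an MX-96 chip, antigen flowed at 500 nM top concentration in 5-fold serial dilutions, GST alone run as nonspecific-binding control, duplicate measurements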).

Binder | Kd | koff | kon
B1 | 14 nM and 13 nM | 0.00057 s⁻¹ and 0.00069 s⁻¹ | 40000 M⁻¹ s⁻¹ and 52000 M⁻¹ s⁻¹
B4 | 7.3 nM and 11 nM | 7.2e-05 s⁻¹ and 9.4e-05 s⁻¹ | 9900 M⁻¹ s⁻¹ and 8500 M⁻¹ s⁻¹

These binders were tested against T1, human TMEM106B (assay: FACS HEK+huTMEM, 10 ug/ml;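 further: purified mouse IgG antibodies at 10 µg/ml bound to HEK293 cells transiently expressing human TMEM106B, measured by flow cytometry as median fluorescence intensity of propidium iodide negative live cells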).

Binder | MFI
B1 | 2380
B2 | 79000
B3 | 3580
B4 | 71700

Molecular target: T1, human TMEM106B
Test: FACS, HEK293 transfectants;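 further: flow cytometry binding of hybridoma supernatants to HEK293 cells transiently expressing human, cyno or mouse TMEM106B, read as anti-mouse-APC median fluorescence, live cells only, 30 min on ice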
Remark: another data set of the same source

Binder | fold-change over parental HEK293
B1 | 4.72 fold
B2 | 13.8 fold
B4 | 18.8 fold

These binders were tested against T5, cynomolgus (cyno) TMEM106B (cynomolgus, UniProt Q9NUM4 2-274 (human entry)) (assay: FACS, HEK293 transfectants;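 further: flow cytometry binding of hybridoma supernatants to HEK293 cells transiently expressing human, cyno or mouse TMEM106B, read as anti-mouse-APC median fluorescence, live cells only, 30 min on ice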).
T5 construct: on transiently transfected HEK293 cells

Binder | fold-change over parental HEK293
B1 | 11.7 fold
B2 | 34.9 fold
B4 | 38.8 fold

What follows are binders tested against T2, mouse TMEM106B (assay: FACS, HEK293 transfectants;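 further: flow cytometry binding of hybridoma supernatants to HEK293 cells transiently expressing human, cyno or mouse TMEM106B, read as anti-mouse-APC median fluorescence, live cells only, 30 min on ice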).

Binder | fold-change over parental HEK293
B1 | 4.61 fold
B2 | 36 fold
B4 | 29 fold

What follows are binders tested against T1, human TMEM106B (assay: FACS HEK+huTMEM, 0.1 ug/ml;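 further: flow cytometry binding of purified mouse IgG antibodies to HEK293 cells transiently expressing TMEM106B, read as median fluorescence intensity with propidium iodide positive dead cells gated out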).
Description: as §5

Binder | MFI
B1 | 1330
B2 | 29800
B3 | 833
B4 | 10600

These binders were tested against T1, human TMEM106B (assay: FACS HEK+huTMEM, 1.0 ug/ml).
Description: as §5

Binder | MFI
B1 | 2010
B2 | 66800
B3 | 2100
B4 | 67300

Each binder was assayed against T1, human TMEM106B (assay: FACS HEK+huTMEM, 0.01 ug/ml).

Binder | MFI
B1 | 655
B2 | 3340
B3 | 500
B4 | 1740

The binders below were run against T1, human TMEM106B (assay: FACS titration on cells, apparent).
Description: as §5

Binder | Kd
B1 | ~1 nM
B2 | ~1 nM
B4 | ~1 nM
